The text below walks through data of publication PMC5789848, “HTLV-1 Tax plugs and freezes UPF1 helicase leading to nonsense-mediated mRNA decay inhibition” (Nature Communications, 2018).

What all share (conditions): both partners purified
Assay [1] deals with T1, UPF1-HD-SQ (HD and SQ domains of UPF1; aa 295-1118) (human, UniProt Q92900-2 295-1118).
T1 construct: UPF1, human, helicase and SQ domains, aa 295-1118; numbers count on: the 1118 aa form; Tags 'and/or' as printed; source: E. coli BL21 DE3, purified (nickel and calmodulin resin)
T1 sequence (looked up): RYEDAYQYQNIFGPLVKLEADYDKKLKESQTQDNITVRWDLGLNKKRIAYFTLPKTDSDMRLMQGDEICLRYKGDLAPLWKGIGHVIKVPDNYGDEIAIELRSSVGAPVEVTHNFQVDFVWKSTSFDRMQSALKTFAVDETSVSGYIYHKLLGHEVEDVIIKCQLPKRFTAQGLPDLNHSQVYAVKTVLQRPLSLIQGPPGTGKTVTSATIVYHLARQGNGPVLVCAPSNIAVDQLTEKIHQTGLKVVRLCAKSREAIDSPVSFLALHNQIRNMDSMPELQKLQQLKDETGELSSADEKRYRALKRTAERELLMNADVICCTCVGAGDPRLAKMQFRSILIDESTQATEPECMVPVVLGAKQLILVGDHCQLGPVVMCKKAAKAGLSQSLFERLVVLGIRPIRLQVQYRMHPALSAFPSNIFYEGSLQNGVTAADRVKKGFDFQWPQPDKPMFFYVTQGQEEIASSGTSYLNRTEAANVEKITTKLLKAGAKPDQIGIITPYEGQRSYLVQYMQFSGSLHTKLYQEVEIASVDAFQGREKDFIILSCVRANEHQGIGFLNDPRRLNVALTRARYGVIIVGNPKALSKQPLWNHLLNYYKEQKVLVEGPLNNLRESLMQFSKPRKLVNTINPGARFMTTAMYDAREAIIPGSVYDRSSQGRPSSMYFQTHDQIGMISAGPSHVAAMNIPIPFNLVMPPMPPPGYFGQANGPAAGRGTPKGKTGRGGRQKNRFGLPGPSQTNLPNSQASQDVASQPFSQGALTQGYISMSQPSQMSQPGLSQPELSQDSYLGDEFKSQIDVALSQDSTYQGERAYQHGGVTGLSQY
The assay is described as follows: pull-down; GST-Tax as bait on GST resin, purified UPF1 proteins as prey; extensive washes with 0.3 M NaCl (methods: binding buffer with 200 mM NaCl); SDS-PAGE, coomassie staining.

The target of assay [2] is T2, UPF1-CH-HD (CH and HD domains of UPF1; aa 115-914) (human, UniProt Q92900-2 115-914).
T2 construct: UPF1, human, CH and helicase domains, aa 115-914; numbers count on: the 1118 aa form; Tags 'and/or' as printed; source: E. coli BL21 DE3, purified (nickel and calmodulin resin)
T2 sequence (looked up): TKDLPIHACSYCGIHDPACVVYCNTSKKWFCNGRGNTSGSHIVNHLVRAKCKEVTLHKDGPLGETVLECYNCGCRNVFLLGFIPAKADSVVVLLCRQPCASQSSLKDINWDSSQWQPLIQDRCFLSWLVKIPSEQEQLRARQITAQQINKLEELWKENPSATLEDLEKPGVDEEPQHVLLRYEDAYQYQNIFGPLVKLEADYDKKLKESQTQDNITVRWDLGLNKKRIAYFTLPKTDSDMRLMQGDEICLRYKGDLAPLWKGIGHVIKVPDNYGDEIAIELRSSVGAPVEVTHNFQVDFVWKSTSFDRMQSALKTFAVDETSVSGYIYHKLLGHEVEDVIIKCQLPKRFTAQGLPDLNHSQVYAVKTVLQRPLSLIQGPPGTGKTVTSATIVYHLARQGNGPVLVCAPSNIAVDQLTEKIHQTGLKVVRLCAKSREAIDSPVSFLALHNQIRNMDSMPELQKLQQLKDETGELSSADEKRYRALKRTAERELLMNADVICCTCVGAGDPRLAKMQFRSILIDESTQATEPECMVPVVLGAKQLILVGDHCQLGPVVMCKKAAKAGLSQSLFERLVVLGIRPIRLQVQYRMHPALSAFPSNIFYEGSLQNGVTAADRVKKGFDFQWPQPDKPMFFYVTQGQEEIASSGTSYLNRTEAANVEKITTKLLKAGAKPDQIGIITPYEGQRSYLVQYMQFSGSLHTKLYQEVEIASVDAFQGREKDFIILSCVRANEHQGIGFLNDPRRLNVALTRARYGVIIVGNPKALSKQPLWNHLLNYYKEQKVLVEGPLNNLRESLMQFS
The assay is described as above.

Assay [3] has as its target T3, UPF1 full-length (UPF1-FL; aa 1-1118) (human, UniProt Q92900-2 1-1118).
T3 construct: Up-Frameshift Suppressor 1 Homolog (UPF1), human, aa 1-1118; printed length 1118 aa; source: E. coli BL21 DE3, purified (nickel and calmodulin resin)
T3 sequence (looked up): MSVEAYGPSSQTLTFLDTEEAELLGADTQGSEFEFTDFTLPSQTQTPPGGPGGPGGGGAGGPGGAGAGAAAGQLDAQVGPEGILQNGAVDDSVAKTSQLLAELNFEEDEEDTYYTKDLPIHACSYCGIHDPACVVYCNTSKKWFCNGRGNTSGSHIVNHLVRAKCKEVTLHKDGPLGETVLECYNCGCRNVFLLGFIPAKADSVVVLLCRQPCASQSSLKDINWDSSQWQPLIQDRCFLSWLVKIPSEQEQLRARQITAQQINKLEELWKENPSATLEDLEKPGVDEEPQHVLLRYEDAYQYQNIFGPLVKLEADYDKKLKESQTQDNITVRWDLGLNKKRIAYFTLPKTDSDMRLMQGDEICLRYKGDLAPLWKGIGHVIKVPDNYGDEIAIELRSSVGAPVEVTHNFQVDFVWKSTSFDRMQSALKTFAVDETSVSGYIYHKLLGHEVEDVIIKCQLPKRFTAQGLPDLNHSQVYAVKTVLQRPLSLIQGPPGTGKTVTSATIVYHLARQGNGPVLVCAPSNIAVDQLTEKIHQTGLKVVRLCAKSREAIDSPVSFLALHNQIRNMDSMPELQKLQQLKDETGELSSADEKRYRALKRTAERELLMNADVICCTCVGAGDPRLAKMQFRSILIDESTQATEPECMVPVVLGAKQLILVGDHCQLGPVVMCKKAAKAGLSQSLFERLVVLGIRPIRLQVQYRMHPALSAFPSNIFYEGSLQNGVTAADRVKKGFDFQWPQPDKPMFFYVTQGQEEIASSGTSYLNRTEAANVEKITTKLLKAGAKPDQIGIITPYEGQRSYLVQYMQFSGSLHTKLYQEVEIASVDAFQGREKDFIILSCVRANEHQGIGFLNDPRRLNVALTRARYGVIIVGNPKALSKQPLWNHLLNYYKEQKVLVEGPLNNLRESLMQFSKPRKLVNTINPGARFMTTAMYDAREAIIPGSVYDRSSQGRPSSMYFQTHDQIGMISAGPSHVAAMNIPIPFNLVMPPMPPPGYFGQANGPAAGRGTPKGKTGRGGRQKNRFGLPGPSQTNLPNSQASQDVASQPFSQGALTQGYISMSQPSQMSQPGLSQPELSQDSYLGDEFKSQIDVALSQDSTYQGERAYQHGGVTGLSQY
Described as above.

Assay [4] concerns the target T4, UPF1 helicase core domain (UPF1-HD; aa 295-914), C-terminal hexahistidine (human, UniProt Q92900-2 295-914).
T4 construct: UPF1, human, helicase core domain (HD), aa 295-914; numbers count on: the 1118 aa form; for UPF1-HD only the C-terminal hexahistidine is named; also called UPF1-HD-His; HisUPF1-HD; source: E. coli BL21 DE3, purified (Ni-NTA); also in E. coli lysate (co-lysis with Tax-expressing bacteria); not shown: His6, C-terminal, kept
T4 sequence (looked up): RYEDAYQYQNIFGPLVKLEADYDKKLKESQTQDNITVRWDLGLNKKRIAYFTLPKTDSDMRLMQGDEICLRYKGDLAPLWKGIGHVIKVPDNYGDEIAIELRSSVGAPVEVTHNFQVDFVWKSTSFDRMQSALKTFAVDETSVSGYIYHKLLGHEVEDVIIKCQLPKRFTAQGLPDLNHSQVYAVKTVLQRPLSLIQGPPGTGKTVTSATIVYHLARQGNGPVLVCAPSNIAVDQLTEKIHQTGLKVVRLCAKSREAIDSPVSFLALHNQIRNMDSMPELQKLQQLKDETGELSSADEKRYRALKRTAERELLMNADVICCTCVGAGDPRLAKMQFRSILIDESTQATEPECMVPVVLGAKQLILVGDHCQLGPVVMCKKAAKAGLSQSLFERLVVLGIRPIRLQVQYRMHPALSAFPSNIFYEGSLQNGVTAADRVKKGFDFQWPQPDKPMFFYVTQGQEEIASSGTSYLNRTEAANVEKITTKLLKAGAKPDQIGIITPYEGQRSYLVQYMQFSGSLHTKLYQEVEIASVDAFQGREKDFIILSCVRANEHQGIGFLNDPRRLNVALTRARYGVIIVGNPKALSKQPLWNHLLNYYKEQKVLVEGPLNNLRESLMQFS
The assay is described as above.

The target in assay [5] is T5, GST-Tax_(CACA) (HTLV-1 Tax with C23 and C29 changed to alanine, N-terminal GST fusion) (HTLV-1, UniProt P03409 1-353, C23A | C29A).
T5 construct: Tax protein of HTLV-1, 353 amino acids, double mutant of the zinc finger region; plasmid pGEX2T-Tax_(CACA) made from pGEX2T-TaxWT; also called GST-tagged Tax_(CACA); source: E. coli BL21-DE3, purified (glutathione magnetic beads); also in E. coli lysate (co-lysis with HisUPF1-HD bacteria); not shown: GST, N-terminal, kept
The assay is described as follows: BLI; BLItz; GST-Tax covalently bound to an AR2G sensor; UPF1 His-HD proteins in running buffer (300 mM NaCl, 20 mM phosphate, 0.02% Tween 20, 0.1% albumin); 250 s association, 60 s dissociation. Background: In BLI a coated tip is dipped into the sample, and binding shifts an interference pattern.

B1: GST-Tax (HTLV-1 Tax, wild type, N-terminal glutathione S-transferase fusion) (natural protein)
chain: not shown
notes: Tax protein of human T-cell lymphotropic virus type I (HTLV-1); also called TaxWT; HTLV-1 GST-Tax; source: E. coli BL21-DE3, purified (glutathione magnetic beads); also in E. coli lysate (co-lysis with HisUPF1-HD bacteria); not shown: GST, N-terminal, kept
With B1, the binding result in assay [1], in assay [2], in assay [3] and in assay [4] was “binds” in each case.

B2: UPF1-HD_(DE636AA), histidine-tagged (domain or fragment)
chain: RYEDAYQYQNIFGPLVKLEADYDKKLKESQTQDNITVRWDLGLNKKRIAYFTLPKTDSDMRLMQGDEICLRYKGDLAPLWKGIGHVIKVPDNYGDEIAIELRSSVGAPVEVTHNFQVDFVWKSTSFDRMQSALKTFAVDETSVSGYIYHKLLGHEVEDVIIKCQLPKRFTAQGLPDLNHSQVYAVKTVLQRPLSLIQGPPGTGKTVTSATIVYHLARQGNGPVLVCAPSNIAVDQLTEKIHQTGLKVVRLCAKSREAIDSPVSFLALHNQIRNMDSMPELQKLQQLKDETGELSSADEKRYRALKRTAERELLMNADVICCTCVGAGDPRLAKMQFRSILIAASTQATEPECMVPVVLGAKQLILVGDHCQLGPVVMCKKAAKAGLSQSLFERLVVLGIRPIRLQVQYRMHPALSAFPSNIFYEGSLQNGVTAADRVKKGFDFQWPQPDKPMFFYVTQGQEEIASSGTSYLNRTEAANVEKITTKLLKAGAKPDQIGIITPYEGQRSYLVQYMQFSGSLHTKLYQEVEIASVDAFQGREKDFIILSCVRANEHQGIGFLNDPRRLNVALTRARYGVIIVGNPKALSKQPLWNHLLNYYKEQKVLVEGPLNNLRESLMQFS
notes: numbers count on: the 1118 aa form; also called UPF1-HD_(DE633AA); UPF1-HD_(DEAA); source: E. coli BL21 DE3, purified (Ni-NTA)
For B2, the “fold change of binding against WT” value in assay [5] is approximately 1.8 times.

B3: UPF1-HD_(R843S), histidine-tagged (domain or fragment)
chain: RYEDAYQYQNIFGPLVKLEADYDKKLKESQTQDNITVRWDLGLNKKRIAYFTLPKTDSDMRLMQGDEICLRYKGDLAPLWKGIGHVIKVPDNYGDEIAIELRSSVGAPVEVTHNFQVDFVWKSTSFDRMQSALKTFAVDETSVSGYIYHKLLGHEVEDVIIKCQLPKRFTAQGLPDLNHSQVYAVKTVLQRPLSLIQGPPGTGKTVTSATIVYHLARQGNGPVLVCAPSNIAVDQLTEKIHQTGLKVVRLCAKSREAIDSPVSFLALHNQIRNMDSMPELQKLQQLKDETGELSSADEKRYRALKRTAERELLMNADVICCTCVGAGDPRLAKMQFRSILIDESTQATEPECMVPVVLGAKQLILVGDHCQLGPVVMCKKAAKAGLSQSLFERLVVLGIRPIRLQVQYRMHPALSAFPSNIFYEGSLQNGVTAADRVKKGFDFQWPQPDKPMFFYVTQGQEEIASSGTSYLNRTEAANVEKITTKLLKAGAKPDQIGIITPYEGQRSYLVQYMQFSGSLHTKLYQEVEIASVDAFQGREKDFIILSCVSANEHQGIGFLNDPRRLNVALTRARYGVIIVGNPKALSKQPLWNHLLNYYKEQKVLVEGPLNNLRESLMQFS
notes: UPF1, human, helicase core domain aa 295-914 (as UPF1-HD) with R843S; numbers count on: the 1118 aa form; source: E. coli, purified (as the other His-tagged UPF1 proteins)
Take B3: the “fold loss of affinity against WT” value in assay [5] was 4 times.
